Source: PMC6770759

Target: porcine pancreatic elastase (porcine) (UniProt P00772)
Chain of UniProt P00772 (P00772 27-266): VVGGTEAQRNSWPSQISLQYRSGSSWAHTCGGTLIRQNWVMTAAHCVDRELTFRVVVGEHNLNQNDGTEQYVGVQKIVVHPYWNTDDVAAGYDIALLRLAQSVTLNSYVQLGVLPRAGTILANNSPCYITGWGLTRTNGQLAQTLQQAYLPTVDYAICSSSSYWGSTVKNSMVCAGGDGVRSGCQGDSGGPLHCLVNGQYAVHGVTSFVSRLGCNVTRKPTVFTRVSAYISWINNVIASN

elastase inhibition % (hydrolysis of N-succinyl-tri-l-alanine-4-nitroanilide read at 410 nm), AAT from 7.5 to 120 µg/mL: 97%
Substance: Alpha-1-antitrypsin (standard AAT, purified from human plasma) (from UniProt P01009 25-418) (natural protein)
